# Measurements: patent publication US20220259294A1 (published 2022)
# B1: TRL1068 (antibody, V domains shown)
# VH: QVQLVESGPGLVKPSETLSLTCRVSGDSNRPSYWSWIRQAPGKAMEWIGYVYDSGVTIYNPSLKGRVTISLDTSKTRFSLKLTSVIAADTAVYYCARERFDRTSYKSWWGQGTQVTVSS
# VL: DIVLTQAPGTLSLSPGDRATLSCRASQRLGGTSLAWYQHRSGQAPRLILYGTSNRATDTPDRFSGSGSGTDFVLTISSLEPEDFAVYYCQQYGSPPYTFGQGTTLDIK
# B2: TRL1215 (antibody, V domains shown)
# VH: QVQLVESGTEVKNPGASVKVSCTASGYKFDEYGVSWVRQSPGQGLEWMGWISVYNGKTNYSQNFQGRLTLTTETSTDTAYMELTSLRPDDTAVYYCATDKNWFDPWGPGTLVTVSS
# VL: DIVMTQSPSASGSPGQSITISCTGTNTDYNYVSWYQHHPGKAPKVIIYDVKKRPSGVPSRFSGSRSGNTATLTVSGLQTEDEADYYCVSYADNNHYVFGSGTKVTVL
# B3: TRL1216 (antibody, V domains shown)
# VH: QVQLVESGGGVVQPGGSLRVSCAASAFSFRDYGIHWVRQAPGKGLQWVAVISHDGGKKFYADSVRGRFTISRDNSENTLYLQMNSLRSDDTAVYYCARLVASCSGSTCTTQPAAFDIWGPGTLVTVSS
# VL: DIMLTQPPSVSVSPGQTARITCSGDALPKKYTYWYQQKSGQAPVLLIYEDRKRPSEIPERFSAFTSWTTATLTITGAQVRDEADYYCYSTDISGDIGVFGGGTKLTVL
# B4: TRL1087 (antibody, V domains shown)
# VH: QVQLLESGPGLVRPSDTLSLTCTFSADLSTNAYWTWIRQPPGKGLEWIGYMSHSGGRDYNPSFNRRVTISVDTSKNQVFLRLTSVTSADTAVYFCVREVGSYYDYWGQGILVTVSS
# VL: DIEMTQSPSSLSASVGDRITITCRASQGISTWLAWYQQKPGKAPKSLIFSTSSLHSGVPSKFSGSGSGTDFTLTITNLQPEDFATYYCQQKWETPYSFGQGTKLDMIR
# B5: TRL1070 (antibody, V domains shown)
# VH: QVQLVQSGGTLVQPGGSLRLSCAASGFTFSYYSMSWVRQAPGKGLEWVANIKHDGTERNYVDSVKGRFTISRDNSEKSLYLQMNSLRAEDTAVYYCAKYYYGAGTNYPLKYWGQGTRVTVSS
# VL: DILMTQSPSSLSASVGDRVTITCRASQGIRNDLGWYQQKPGKAPKLLIYAASSLQSGVPSRFSGSGSGTDFTLTISSLQPEDFATYYCLQDYNYPLTFGGGTKVEIKR
# B6: TRL1218 (antibody, V domains shown)
# VH: QVQLLESGADMVQPGRSLRLSCAASGFNFRTYAMHWVRQAPGKGLEWVAVMSHDGYTKYYSDSVRGQFTISRDNSKNTLYLQMNNLRPDDTAIYYCARGLTGLSVGFDYWGQGTLVTVSS
# VL: DIVLTQSASVSGSPGQSITISCTGTSSDVGGYNYVSWYQQHPGKAPKLMIYDVTTRPSGVSDRFSGSKSGNTASLTISGLQAEDEADYYCSSYSSGSTPALFGGGTQLTVL
# B7: TRL1230 (antibody, V domains shown)
# VH: QVQLVQSGGGLVKPGGSLRLSCGASGFNLSSYSMNWVRQAPGKGLEWVSSISSRSSYIYYADSVQGRFTISRDNAKNSLYLQMNSLRAEDTAIYYCARVSPSTYYYYGMDVWGQGTTVTVSS
# VL: DIVLTQPSSVSVSPGQTARITCSGDELPKQYAYWYQQKPGQAPVLVIYKDNERPSGIPERFSGSSSGTTVTLTISGVQAEDEADYYCQSADSSGTYVVFGGGTKLTVL
# B8: TRL1232 (antibody, V domains shown)
# VH: QVQLVESGAEVKKPGALVKVSCKASGYTFSGYYMHWVRQAPGQGLEWMGWINPKSGGTKYAQKFQGRVTMTRDTSISTAYMELSRLRSDDTAVYFCARGGPSNLERFLERLQPRYSYDDKYAMDVWGQGTTVTVSS
# VL: DIVMTQSPGTLSLSPGARATLSCRASQSVSSIYLAWYQQKPGQAPRLLIFGASSRATGIPDRFSGSGSGTDFTLTISRLEPEDFAVYYCQQYGSSPYTFGQGTKLEIKR
# Biological target: T1, IHF from Haemophilus influenzae (Hi) (Haemophilus influenzae)
# T1 chain: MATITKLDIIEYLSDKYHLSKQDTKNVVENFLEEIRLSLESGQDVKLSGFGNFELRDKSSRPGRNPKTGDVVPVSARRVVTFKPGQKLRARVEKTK
# Experiment: ForteBio Octet QK biosensor (BLI), ratio of on and off rates
row,Binder,Kd [nM]
1,B1,350

# Biological target: T2, IHF from Klebsiella pneumoniae (Kp) (Klebsiella pneumoniae)
# T2 construct: Recombinant, His-tagged, made in HEK293 cells; also called IHF (Kp)
# Experiment: as above
# T2 sequence (A6TAI1 whole entry, chain 1 of 2): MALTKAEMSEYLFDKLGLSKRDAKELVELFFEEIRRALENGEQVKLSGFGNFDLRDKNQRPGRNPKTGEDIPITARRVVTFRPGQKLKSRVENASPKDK
# T2 sequence (A6T704 whole entry, chain 2 of 2, further chain): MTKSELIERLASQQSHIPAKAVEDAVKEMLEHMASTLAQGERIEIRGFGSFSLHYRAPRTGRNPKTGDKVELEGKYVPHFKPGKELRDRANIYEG
row,Binder,Kd [nM]
1,B1,7

# Biological target: T1, IHF from Haemophilus influenzae (Hi)
# Experiment: ELISA
row,Binder,OD [OD]
1,B2,1.9
2,B3,0.06
3,B4,0.06
4,B5,0.11
5,B6,0.04
6,B7,0.06
7,B8,0.1

# Biological target: T2, IHF from Klebsiella pneumoniae (Kp)
# Experiment: ELISA
row,Binder,OD [OD]
1,B2,1.6
2,B3,0.4
3,B4,0.06
4,B5,0.5
5,B6,0.06
6,B7,0.07
7,B8,0.1
